Measurements as given in patent US20090170718, “High-stringency screening of target-binding partners using a microfludic device” (published 2009).

B1: aptamer c (ssDNA)
DNA: AGCAGCACAGAGGTCAGATGCTTGAGTGTCATGGACGTTCCGGTCTTGGGCGGGATATTTGTTTGTTTTCTGCCTATGTTCCTATGCGTGCTACCGTGAA
B2: aptamer d (ssDNA)
DNA: AGCAGCACAGAGGTCAGATGTCAGATGGCCGGACTCAGGCACTAGACCACTATGCTTCCGTTGCCATTCATCGGCACGTCCTATGCGTGCTACCGTGAA
B3: aptamer a (ssDNA)
DNA: AGCAGCACAGAGGTCAGATGTCTTTCATACCGAGGTTGATCCAGTAGTATTCTTATCTAATTTGTTTTGTTCGTATGTGCCCTATGCGTGCTACCGTGAA
B4: aptamer b (ssDNA)
DNA: AGCAGCACAGAGGTCAGATGTGGTCTTGTCTTTCATTCCAGGTGGCGAGTCAAATCGATACTGATCCGCTGACACAGGATCCTATGCGTGCTACCGTGAA

Columns and labels:
[1] = molecular target: T1, Botulinum neurotoxin type A light chain (BoNT/A-rLc) (UniProt P0DPI1 P0DPI1:2-448); test: SPR; 20 mM HEPES, 150 mM NaCl, 2 mM KCl, 2 mM MgCl2, 2 mM CaCl2, pH 7.4; […]; conditions: tags: List Biological Laboratories; coupled via amines to Dynabeads M-270 carboxylic acid for selection and bead assays
[2] = molecular target: T1, Botulinum neurotoxin type A light chain …; test: SPR; conditions: tags: List Biological Laboratories; coupled via amines to Dynabeads M-270 carboxylic acid for selection and bead assays

Row | Binder | Kd [1] [nM] | Kd [2] [nM]
1 | B1 | 34 | 
2 | B2 |  | 53
3 | B3 |  | 65
4 | B4 |  | 86
